From EP3766894A1 (Ecole Polytechnique Federale De Lausanne (EPFL) EPFL-TTO, dated 2021) come the findings set out here.

Positions of bridges follow the written chain, without caps; N, C: chain ends. Non-standard residues stand in square brackets, D forms with d. Primed or numbered codes have the meaning given here. Chains are numbered I, II in the order given. No end group written: not given here. *: point of attachment. Palmitoyl = CCCCCCCCCCCCCCCC(=O)*; Nle = CCCC[C@H](N)C(=O)O; PEG2″ = not defined here

Test [1] has as its target T1, human Kallikrein-related peptidase 5 (hKLK5) (human, UniProt Q9Y337 67-293, limits assumed).
T1 construct: Active protease in substrate-based activity assays; also called stratum corneum tryptic enzyme (SCTE)
Put plainly: substrate-based activity assay.

Another test has as its target T2, FXIIa (Factor XIIa) (human, UniProt P00748 373-615, limits assumed).
T2 sequence (looked up): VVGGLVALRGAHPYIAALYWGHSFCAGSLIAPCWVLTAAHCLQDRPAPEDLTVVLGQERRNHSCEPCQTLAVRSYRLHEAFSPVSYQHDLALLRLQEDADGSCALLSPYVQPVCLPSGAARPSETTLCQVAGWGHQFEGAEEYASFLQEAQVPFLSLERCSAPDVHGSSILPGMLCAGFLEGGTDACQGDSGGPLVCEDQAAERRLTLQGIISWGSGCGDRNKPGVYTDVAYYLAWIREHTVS
Put plainly: substrate-based activity assay.

In test [2] the target is T3, mouse serum albumin (MSA) (mouse, UniProt P07724 25-608).
T3 construct: also called mouse albumin
T3 sequence (P07724 25-608 limits assumed): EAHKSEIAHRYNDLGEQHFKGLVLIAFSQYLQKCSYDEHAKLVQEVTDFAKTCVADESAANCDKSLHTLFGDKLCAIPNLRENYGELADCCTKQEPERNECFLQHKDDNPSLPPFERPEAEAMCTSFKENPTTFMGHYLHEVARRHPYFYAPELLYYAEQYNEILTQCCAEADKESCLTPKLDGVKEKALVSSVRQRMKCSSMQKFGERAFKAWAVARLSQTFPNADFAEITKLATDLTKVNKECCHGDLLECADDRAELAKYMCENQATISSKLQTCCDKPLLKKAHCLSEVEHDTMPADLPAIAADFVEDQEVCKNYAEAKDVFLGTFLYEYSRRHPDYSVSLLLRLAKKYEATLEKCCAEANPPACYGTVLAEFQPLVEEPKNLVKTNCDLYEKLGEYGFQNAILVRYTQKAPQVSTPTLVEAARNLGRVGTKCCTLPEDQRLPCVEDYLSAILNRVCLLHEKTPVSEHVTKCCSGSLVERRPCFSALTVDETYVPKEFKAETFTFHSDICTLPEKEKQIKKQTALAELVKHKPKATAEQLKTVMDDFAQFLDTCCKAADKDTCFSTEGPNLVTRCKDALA
Put plainly: fluorescence polarization, dilution series of mouse albumin in PBS. On the technique in general: Polarisation of emitted light reports the rotation of a fluorescent probe.

Test [3] deals with T4, human serum albumin (HSA) (human, UniProt P02768 25-609). Put plainly: fluorescence polarization.
For test [4], the target named is T5, human Kallikrein-related peptidase 7 (hKLK7) (human, UniProt P49862 30-253).
T5 construct: Active protease in substrate-based activity assays; also called stratum corneum chymotryptic enzyme (SCCE)
T5 sequence (P49862 30-253 limits assumed): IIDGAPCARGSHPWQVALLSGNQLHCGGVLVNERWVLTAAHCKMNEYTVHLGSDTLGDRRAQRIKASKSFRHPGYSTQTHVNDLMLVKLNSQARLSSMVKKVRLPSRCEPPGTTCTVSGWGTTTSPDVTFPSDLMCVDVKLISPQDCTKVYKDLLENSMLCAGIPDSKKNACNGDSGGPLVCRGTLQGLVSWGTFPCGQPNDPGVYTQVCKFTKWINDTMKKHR
As to the kind of experiment: substrate-based activity assay.

Test [5] deals with T1, human Kallikrein-related peptidase 5 …. As to the kind of experiment: activity assay in the presence of 25 µM HSA.
Test [6] concerns the target T4, human serum albumin (HSA). Put plainly: fluorescence polarization, dilution series of human serum.
Another test concerns the target mouse KLK7 (mKLK7) (mouse, UniProt Q91VE3 26-249). As to the kind of experiment: substrate-based activity assay, same conditions as for hKLK.
The target of test [7] is T5, human Kallikrein-related peptidase 7 …. Put plainly: activity assay in the presence of 25 µM HSA.
The target of another test is mouse KLK5 (mKLK5) (mouse). As to the kind of experiment: substrate-based activity assay, same conditions as for hKLK.

T1 sequence (Q9Y337 67-293 limits assumed): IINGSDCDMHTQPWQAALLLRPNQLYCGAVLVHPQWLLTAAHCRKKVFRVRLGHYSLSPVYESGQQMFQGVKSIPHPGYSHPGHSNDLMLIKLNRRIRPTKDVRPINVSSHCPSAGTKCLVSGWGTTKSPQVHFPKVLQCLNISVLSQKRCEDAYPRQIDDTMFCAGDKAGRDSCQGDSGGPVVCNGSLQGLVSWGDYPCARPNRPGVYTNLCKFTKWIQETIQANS
Sequence of mouse KLK7 (mKLK7) (Q91VE3 26-249 limits assumed): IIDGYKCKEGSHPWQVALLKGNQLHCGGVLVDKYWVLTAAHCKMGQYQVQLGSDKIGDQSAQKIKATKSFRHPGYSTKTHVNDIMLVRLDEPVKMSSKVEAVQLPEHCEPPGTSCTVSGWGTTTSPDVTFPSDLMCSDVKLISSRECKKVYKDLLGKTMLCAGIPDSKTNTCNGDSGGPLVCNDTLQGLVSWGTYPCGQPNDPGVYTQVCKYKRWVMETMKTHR

As usually defined, the Ki is a dissociation constant, usually derived from enzyme kinetics or from competition with a known ligand. Regarding GCTRQYPC (linker 2-8 via 1,3‑dibromoacetone) [peptide 035 (lead KLK5 inhibitor)], the Ki in [1] worked out at 2.2 nM; in the test with FXIIa (Factor XIIa), 40000 nM.

What is called Kd is the free concentration of one partner at which half of the binding sites on the other are occupied at equilibrium, for simple one-to-one binding. Low readings indicate a tighter complex, high ones a looser complex. {fluorescein-PEG2″}-EYEK(Palmitoyl)EYE (also called fluorescein-tag) [albumin tag (F-tag)]: in test [2], the Kd turned out to be 4200 nM.

B1: peptide 282 (albumin tag variant, biphenyl-3-carboxylic acid) (peptide)
peptide: EYEKEYEK
modifications: not fully specified; N-terminal cap based on peptide 266 with biphenyl-3-carboxylic acid; Lys 4 side chain acylated with palmitic acid; 5(6)-FAM on the side chain of the additional C-terminal Lys
The molecule B1 registered a Kd in test [3] of 132 nM.

B2: peptide 284 (albumin tag variant, 2-naphthalenecarboxylic acid) (peptide)
peptide: EYEKEYEK
modifications: not fully specified; N-terminal cap based on peptide 266 with 2-naphthalenecarboxylic acid; Lys 4 side chain acylated with palmitic acid; 5(6)-FAM on the side chain of the additional C-terminal Lys
B2: the Kd in test [3] came to 147 nM.

B3: peptide 114 with norleucine in position five (peptide)
peptide: PCLY[Nle]ARC
modifications: linker 2-8 via 1,3‑dibromoacetone
notes: No peptide number is printed for the untagged norleucine derivative
The molecule B3 yielded a Ki in [4] of 7 nM.

B4: N-terminal albumin tag conjugate of KLK5 inhibitor 035 (peptide)
peptide 1: GCTRQYPC
peptide 2: {5(6)‑carboxyfluorescein}-EYEK(Palmitoyl)EYE
modifications: bridge I:2-I:8; not fully specified (C-terminus, bridges); also: chain 2 C-terminus joined via PEG2 to chain 1 N-terminus, linker to a chain's N/C-terminus via PEG2
As to B4, in test [5], the Ki is 23 nM and the “fold loss in activity against the cyclic peptide alone” value was 10 fold. In addition, the binding result in test [6] is “binds”.

Turning to PCLYLARCS (bridge 2-8; not fully specified (bridges)) [peptide 096 (lead KLK7 inhibitor)], affinity in [4] was put at a Ki of 16 nM.

B5: KLK7 inhibitor 096-tag (C-terminal albumin tag conjugate of 096) (peptide)
peptide 1: PCLYLARCSGKG
peptide 2: EYEK(Palmitoyl)EYE
modifications: bridge I:2-I:8; not fully specified (N-terminus, bridges); also: N-terminal fluorescein via PEG2, chain not given here, chain 2 tag joined via PEG2 to Lys11 side chain of chain 1
For orientation: IC50 means the concentration that inhibits the measured activity by half. Read a high IC50 as weaker potency in that assay. For the molecule B5, the IC50 with mouse KLK7 (mKLK7) was 20 nM. For the same molecule, the Ki in test [7] is 32 nM. For the same molecule, the Kd in test [6] came to 164 nM.

B6: KLK5 inhibitor 035-tag (C-terminal albumin tag conjugate of 035) (peptide)
peptide 1: GCTRQYPCGKG
peptide 2: EYEK(Palmitoyl)EYE
modifications: bridge I:2-I:8; not fully specified (N-terminus, bridges); also: N-terminal fluorescein via PEG2, chain not given here, chain 2 tag joined via PEG2 to Lys10 side chain of chain 1
Take B6: in the test with mouse KLK5 (mKLK5), the midpoint of inhibition, the IC50, lay at 2 nM. Moreover, in test [5], the Ki was found to be 1.2 nM. For the same molecule, binding in [6] was characterised by a dissociation constant (Kd) of 119 nM.
